Results from US20090042248.

T1: Human C2, P06681
T1 chain: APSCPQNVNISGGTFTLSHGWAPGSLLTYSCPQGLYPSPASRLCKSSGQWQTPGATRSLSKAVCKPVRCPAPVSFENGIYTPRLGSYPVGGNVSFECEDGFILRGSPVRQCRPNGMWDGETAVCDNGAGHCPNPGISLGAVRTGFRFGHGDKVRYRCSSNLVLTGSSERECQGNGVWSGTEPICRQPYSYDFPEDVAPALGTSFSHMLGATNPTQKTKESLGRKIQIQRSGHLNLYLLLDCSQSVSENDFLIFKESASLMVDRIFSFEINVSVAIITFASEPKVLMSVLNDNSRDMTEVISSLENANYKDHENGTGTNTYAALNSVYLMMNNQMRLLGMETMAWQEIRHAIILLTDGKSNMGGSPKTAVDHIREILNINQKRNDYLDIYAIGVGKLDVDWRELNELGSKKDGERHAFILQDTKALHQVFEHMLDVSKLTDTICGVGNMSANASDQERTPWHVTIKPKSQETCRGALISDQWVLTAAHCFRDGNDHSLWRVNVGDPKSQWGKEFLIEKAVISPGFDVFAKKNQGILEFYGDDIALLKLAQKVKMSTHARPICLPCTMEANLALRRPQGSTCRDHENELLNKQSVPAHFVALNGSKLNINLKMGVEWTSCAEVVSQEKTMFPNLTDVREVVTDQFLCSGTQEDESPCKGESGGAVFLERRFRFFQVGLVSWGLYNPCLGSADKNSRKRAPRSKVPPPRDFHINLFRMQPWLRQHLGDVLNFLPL

T2: P1 Arg oligopeptide of the competing oligopeptide substrate library
T2 chain: HAAPRSANIQIAI

T3: P1 Lys oligopeptide of the competing oligopeptide substrate library
T3 chain: HAAPKSANIQIAI

T4: C1-inhibitor, P05155
T4 chain: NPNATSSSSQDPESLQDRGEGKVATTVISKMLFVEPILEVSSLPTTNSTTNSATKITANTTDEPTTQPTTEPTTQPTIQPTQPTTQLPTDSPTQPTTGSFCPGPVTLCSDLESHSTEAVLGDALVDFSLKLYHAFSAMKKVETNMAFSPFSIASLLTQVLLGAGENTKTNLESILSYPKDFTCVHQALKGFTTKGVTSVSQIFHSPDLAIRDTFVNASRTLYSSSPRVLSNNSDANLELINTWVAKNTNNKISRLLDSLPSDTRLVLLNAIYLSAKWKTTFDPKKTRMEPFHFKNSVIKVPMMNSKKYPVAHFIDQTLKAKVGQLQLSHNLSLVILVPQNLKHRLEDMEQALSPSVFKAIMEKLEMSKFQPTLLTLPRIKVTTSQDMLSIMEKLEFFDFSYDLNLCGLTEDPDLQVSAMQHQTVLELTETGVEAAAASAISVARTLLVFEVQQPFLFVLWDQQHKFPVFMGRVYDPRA

T5: alpha-2-macroglobulin, P01023
T5 chain: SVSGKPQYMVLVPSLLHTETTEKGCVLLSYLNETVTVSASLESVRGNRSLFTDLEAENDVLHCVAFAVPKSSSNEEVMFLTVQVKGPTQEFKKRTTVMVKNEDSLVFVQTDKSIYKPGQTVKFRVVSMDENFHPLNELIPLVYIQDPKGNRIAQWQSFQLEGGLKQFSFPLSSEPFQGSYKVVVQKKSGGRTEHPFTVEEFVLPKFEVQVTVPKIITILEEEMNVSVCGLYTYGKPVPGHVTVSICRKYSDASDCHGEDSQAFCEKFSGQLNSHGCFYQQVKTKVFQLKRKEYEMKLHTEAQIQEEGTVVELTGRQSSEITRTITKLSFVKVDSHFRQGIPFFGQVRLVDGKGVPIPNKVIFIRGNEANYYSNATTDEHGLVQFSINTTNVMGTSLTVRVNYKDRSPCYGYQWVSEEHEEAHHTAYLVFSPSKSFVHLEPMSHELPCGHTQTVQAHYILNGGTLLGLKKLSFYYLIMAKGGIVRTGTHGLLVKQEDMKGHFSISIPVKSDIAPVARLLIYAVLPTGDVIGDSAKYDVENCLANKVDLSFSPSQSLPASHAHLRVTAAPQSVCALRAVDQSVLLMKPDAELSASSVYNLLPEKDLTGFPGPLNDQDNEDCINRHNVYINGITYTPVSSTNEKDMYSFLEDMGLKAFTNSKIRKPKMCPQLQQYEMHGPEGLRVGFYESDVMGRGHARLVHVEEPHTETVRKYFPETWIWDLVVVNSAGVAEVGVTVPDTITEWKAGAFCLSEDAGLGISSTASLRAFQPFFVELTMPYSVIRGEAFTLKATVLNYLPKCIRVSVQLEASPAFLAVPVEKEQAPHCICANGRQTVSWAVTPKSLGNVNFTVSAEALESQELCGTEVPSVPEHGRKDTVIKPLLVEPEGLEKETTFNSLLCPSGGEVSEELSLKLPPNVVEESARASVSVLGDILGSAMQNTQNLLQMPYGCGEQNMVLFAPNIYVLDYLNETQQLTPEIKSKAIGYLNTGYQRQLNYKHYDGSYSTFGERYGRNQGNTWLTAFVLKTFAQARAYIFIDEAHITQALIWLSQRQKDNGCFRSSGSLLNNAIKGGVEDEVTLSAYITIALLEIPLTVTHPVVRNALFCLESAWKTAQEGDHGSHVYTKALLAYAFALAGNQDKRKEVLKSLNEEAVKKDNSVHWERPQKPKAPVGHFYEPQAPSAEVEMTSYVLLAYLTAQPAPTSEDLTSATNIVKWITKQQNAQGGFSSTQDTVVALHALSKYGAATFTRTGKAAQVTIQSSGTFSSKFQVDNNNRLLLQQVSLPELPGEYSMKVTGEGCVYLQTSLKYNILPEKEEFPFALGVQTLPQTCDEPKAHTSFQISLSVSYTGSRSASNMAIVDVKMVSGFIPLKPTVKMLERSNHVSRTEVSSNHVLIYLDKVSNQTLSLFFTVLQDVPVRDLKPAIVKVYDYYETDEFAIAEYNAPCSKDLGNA


Assays:
[1] = target: 'dead' C3(NH3), P01024
[2] = target: 'live' C3 (C3 with an intact thiol ester bond), P01024
[3] = target: T1, Human C2, P06681
[4] = target: Human C4, P0C0L4
[5] = target: T2, P1 Arg oligopeptide of the competing …
[6] = target: T3, P1 Lys oligopeptide of the competing …
[7] = target: T4, C1-inhibitor, P05155; assay: SDS-stable complex formation of 125I-labelled MASP fragments with C1-inhibitor
[8] = target: T4, C1-inhibitor, P05155; assay: SDS-stable complex formation of 125I-labelled MASP fragment with C1-inhibitor, reducing SDS-PAGE, autoradiography and densitometry
[9] = target: T5, alpha-2-macroglobulin, P01023

Sequence of Human C4, P0C0L4 (P0C0L4 whole entry, looked up): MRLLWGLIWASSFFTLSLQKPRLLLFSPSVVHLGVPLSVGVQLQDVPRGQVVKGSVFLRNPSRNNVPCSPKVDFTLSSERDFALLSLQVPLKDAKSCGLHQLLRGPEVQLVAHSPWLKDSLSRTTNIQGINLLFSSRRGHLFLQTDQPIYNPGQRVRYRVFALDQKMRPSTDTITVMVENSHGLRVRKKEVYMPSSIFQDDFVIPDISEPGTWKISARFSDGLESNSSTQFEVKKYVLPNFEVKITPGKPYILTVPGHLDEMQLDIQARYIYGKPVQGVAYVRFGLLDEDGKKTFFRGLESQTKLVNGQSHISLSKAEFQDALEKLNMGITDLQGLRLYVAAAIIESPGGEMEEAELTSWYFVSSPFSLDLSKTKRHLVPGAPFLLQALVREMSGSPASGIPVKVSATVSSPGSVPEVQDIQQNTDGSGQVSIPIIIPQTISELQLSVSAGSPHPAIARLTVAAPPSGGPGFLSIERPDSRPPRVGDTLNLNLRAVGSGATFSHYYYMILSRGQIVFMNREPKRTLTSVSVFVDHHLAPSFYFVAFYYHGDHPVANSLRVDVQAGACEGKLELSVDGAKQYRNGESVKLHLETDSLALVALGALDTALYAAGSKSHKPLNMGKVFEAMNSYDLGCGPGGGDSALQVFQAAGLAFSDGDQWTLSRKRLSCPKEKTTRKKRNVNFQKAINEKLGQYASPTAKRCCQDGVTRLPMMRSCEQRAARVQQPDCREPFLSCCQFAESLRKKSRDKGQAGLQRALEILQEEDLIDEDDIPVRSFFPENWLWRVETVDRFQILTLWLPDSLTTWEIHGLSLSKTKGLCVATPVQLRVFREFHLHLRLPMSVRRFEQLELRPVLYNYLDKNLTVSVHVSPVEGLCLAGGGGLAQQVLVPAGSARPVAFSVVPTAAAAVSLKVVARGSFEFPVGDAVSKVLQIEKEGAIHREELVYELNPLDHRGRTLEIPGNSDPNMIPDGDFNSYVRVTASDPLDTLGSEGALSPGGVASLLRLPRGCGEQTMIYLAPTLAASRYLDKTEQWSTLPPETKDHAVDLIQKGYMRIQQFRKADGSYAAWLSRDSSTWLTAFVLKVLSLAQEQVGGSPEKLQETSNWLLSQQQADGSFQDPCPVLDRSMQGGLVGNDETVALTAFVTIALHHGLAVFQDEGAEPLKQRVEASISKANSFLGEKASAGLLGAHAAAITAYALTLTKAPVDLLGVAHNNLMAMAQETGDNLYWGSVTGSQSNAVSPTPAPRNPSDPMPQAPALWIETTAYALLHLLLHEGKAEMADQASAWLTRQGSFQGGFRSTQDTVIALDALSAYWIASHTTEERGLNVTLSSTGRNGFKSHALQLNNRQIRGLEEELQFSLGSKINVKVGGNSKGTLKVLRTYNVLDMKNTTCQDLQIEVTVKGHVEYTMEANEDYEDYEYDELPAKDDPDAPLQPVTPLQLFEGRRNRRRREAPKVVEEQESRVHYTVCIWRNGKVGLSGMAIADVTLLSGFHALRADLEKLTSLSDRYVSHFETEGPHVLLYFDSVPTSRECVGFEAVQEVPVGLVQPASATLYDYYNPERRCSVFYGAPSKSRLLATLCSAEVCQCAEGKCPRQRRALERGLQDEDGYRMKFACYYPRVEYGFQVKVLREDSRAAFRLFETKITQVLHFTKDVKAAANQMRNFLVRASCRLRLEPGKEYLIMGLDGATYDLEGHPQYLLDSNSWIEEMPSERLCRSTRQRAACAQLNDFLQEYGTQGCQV
Sequence of 'live' C3 (C3 with an intact thiol ester bond), P01024 (P01024 whole entry, looked up): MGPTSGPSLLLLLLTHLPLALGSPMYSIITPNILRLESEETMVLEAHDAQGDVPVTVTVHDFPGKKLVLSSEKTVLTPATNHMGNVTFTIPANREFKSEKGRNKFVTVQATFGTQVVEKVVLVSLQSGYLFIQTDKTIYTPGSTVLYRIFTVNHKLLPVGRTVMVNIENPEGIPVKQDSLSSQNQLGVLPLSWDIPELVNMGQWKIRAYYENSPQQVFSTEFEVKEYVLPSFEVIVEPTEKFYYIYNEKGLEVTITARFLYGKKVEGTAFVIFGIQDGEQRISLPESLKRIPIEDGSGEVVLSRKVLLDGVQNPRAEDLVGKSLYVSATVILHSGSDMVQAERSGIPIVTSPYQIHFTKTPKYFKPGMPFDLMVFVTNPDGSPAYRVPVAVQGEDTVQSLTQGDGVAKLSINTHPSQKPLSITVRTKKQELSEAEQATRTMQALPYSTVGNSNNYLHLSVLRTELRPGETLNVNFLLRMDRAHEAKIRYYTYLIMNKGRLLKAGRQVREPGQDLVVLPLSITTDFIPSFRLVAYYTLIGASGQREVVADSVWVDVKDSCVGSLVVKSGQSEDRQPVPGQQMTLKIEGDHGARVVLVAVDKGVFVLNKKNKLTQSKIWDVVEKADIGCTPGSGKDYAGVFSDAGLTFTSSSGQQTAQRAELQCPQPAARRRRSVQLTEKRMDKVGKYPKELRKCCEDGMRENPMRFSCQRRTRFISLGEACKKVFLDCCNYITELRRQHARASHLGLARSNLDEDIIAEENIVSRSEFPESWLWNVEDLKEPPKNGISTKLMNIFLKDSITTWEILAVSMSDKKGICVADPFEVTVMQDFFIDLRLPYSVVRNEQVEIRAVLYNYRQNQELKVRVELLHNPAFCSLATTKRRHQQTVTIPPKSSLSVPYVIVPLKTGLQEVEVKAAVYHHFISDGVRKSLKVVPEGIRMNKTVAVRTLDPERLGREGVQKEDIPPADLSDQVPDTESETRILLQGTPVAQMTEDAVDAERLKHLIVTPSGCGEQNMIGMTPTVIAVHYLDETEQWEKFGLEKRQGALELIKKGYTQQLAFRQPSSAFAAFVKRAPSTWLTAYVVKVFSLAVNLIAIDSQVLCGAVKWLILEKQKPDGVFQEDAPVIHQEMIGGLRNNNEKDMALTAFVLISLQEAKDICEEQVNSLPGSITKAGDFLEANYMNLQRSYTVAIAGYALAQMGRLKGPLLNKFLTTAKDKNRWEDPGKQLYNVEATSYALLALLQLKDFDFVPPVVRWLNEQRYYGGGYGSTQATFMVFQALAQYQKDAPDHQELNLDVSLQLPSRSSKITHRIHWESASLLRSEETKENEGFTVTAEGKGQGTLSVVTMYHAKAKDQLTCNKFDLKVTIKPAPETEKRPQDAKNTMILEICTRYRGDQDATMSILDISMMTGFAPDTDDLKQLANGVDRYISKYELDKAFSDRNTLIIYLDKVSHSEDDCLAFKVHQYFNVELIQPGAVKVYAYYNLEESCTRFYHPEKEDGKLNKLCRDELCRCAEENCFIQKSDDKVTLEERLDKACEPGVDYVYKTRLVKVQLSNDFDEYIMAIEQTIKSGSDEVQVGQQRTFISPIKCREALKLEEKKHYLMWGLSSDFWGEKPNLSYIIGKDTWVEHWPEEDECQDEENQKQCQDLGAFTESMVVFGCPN
Sequence of 'dead' C3(NH3), P01024 (P01024 whole entry, looked up): as above

Protein | kcat/KM, cleavage of C3(NH3) [1] [M⁻¹ s⁻¹] | kcat/KM, cleavage of live C3 [2] [M⁻¹ s⁻¹] | KM, C2 cleavage [3] [µM] | kcat, C2 cleavage [3] [s⁻¹] | kcat/KM, C2 cleavage [3] [M⁻¹ s⁻¹] | KM, C4 cleavage [4] [µM] | kcat, C4 cleavage [4] [s⁻¹] | kcat/KM, C4 cleavage [4] [M⁻¹ s⁻¹] | cleavage in the competing oligopeptide substrate library [5] | digestion of the P1 Arg oligopeptide at 15 min [5] | efficiency of digestion against the MASP-2 CCP1-CCP2-SP fragment [5] | cleavage in the competing oligopeptide substrate library [6] | fold lower kobs than for the MASP-2 CCP1-CCP2-SP fragment [7] | kobs (pseudo-first order rate of reaction at [C1-inh] = 350 nM) [8] [s⁻¹] | molar excess needed to abolish cleavage of complement substrates [9]
MASP-1 CCP1-CCP2-SP fragment (protein) chain 1: ASMTGNECPELQPPVHGKIEPSQAKYFFKDQVLVSCDTGYKVLKDNVEMDTFQIECLKDGTWSNKIPTCKIVDCRAPGELEHGLITFSTRNNLTTYKSEIKYSCQEPYYKMLNNNTGIYTCSAQGVWMNKVLGRSLPTCLPVCGLPKFSRKLMAR chain 2: IFNGRPAQKGTTPWIAMLSHLNGQPFCGGSLLGSSWIVTAAHCLHQSLDPEDPTLRDSDLLSPSDFKIILGKHWRLRSDENEQHLGVKHTTLHPQYDPNTFENDVALVELLESPVLNAFVMPICLPEGPQQEGAMVIVSGWGKQFLQRFPETLMEIEIPIVDHSTCQKAYAPLKKKVTRDMICAGEKEGGKDACAGDSGGPMVTLNRERGQWYLVGTVSWGDDCGKKDRYGVYSYIHHNKDWIQRVTGVRN | 6100 | 300 | 4.8 | 0.1 | 30000 | 2.7 | 0.002 | 690 | both enzymes cleave oligopeptides that contain either Arg or Lys at their P1 positions | at 15 min MASP-1 showed almost 90% digestion | the MASP-1 CCP1-CCP2-SP fragment digests the P1 Arg peptide 4-5 fold more efficiently than the corresponding fragment of MASP-2 | both enzymes cleave oligopeptides that contain either Arg or Lys at their P1 positions | 5-fold less for the MASP-1 CCP1-CCP2-SP than for the MASP-2 CCP1-CCP2-SP fragment | 0.0014 | –
MASP-2 CCP1-CCP2-SP fragment (protein) chain 1: IHYTSTAQPCPYPMAPPNGHVSPVQAKYILKDSFSIFCETGYELLQGHLPLKSFTAVCQKDGSWDRPMPACSIVDCGPPDDLPSGRVEYITGPGVTTYKAVIQYSCEETFYTMKVNDGKYVCEADGFWTSSKGEKSLPVCEPVCGLSARTTGGR chain 2: IYGGQKAKPGDFPWQVLILGGTTAAGALLYDNWVLTAAHAVYEQKHDASALDIRMGTLKRLSPHYTQAWSEAVFIHEGYTHDAGFDNDIALIKLNNKVVINSNITPICLPRKEAESFMRTDDIGTASGWGLTQRGFLARNLMYVDIPIVDHQKCTAAYEKPPYPRGSVTANMLCAGLESGGKDSCRGDSGGALVFLDSETERWFVGGIVSWGSMNCGEAGQYGVYTKVINYIPWIENIISDF | 3300 | 350 | 4 | 1.9 | 500000 | 1.6 | 0.9 | 550000 | both enzymes cleave oligopeptides that contain either Arg or Lys at their P1 positions | MASP-2 cleaved less than 20% of the substrate | – | both enzymes cleave oligopeptides that contain either Arg or Lys at their P1 positions | – | 0.0078 | or with a large molar excess (40 fold) of alpha-2-macroglobulin
